Assay results as given in US20220308072A1.

Tests used:
[1] = target: Recombinant, his tagged full length human frataxin protein (Abcam ab95502) (human) (UniProt Q16595); test: Simoa sandwich; capture Ab-1; no helper beads; frataxin 167 pg/mL
[2] = target: Recombinant, his tagged full length human frataxin protein (Abcam ab95502) (human) (UniProt Q16595); test: Simoa sandwich 3-step; capture Ab-3
[3] = target: Recombinant, his tagged full length human frataxin protein (Abcam ab95502) (human) (UniProt Q16595); test: Simoa sandwich 2-step (120 min-5 min); capture Ab-1; Diluent 1 + 5% NCS
[4] = target: Recombinant, his tagged full length human frataxin protein (Abcam ab95502) (human) (UniProt Q16595); test: Simoa sandwich 2-step (35 min-5 min); capture Ab-1; with helper beads; frataxin 6.17 pg/mL
[5] = target: Recombinant, his tagged full length human frataxin protein (Abcam ab95502) (human) (UniProt Q16595); test: Simoa sandwich 3-step; capture Ab-4
[6] = target: Recombinant, his tagged full length human frataxin protein (Abcam ab95502) (human) (UniProt Q16595); test: Simoa sandwich 2-step; capture Ab-4
[7] = target: Recombinant, his tagged full length human frataxin protein (Abcam ab95502) (human) (UniProt Q16595); test: Simoa sandwich 2-step (35 min-5 min); capture Ab-1; with helper beads; frataxin 0.686 pg/mL
[8] = target: Recombinant, his tagged full length human frataxin protein (Abcam ab95502) (human) (UniProt Q16595); test: Simoa sandwich 2-step (120 min-5 min); capture Ab-1; Diluent 1 + 10% NCS; frataxin 1.37 pg/mL
[9] = target: Recombinant, his tagged full length human frataxin protein (Abcam ab95502) (human) (UniProt Q16595); test: Simoa sandwich 3-step; capture Ab-2; frataxin 10000 pg/mL
[10] = target: Recombinant, his tagged full length human frataxin protein (Abcam ab95502) (human) (UniProt Q16595); test: Simoa sandwich 2-step; capture Ab-1; frataxin 18.5 pg/mL
[11] = target: Recombinant, his tagged full length human frataxin protein (Abcam ab95502) (human) (UniProt Q16595); test: Simoa sandwich 2-step; capture Ab-2; frataxin 1000 pg/mL
[12] = target: Recombinant, his tagged full length human frataxin protein (Abcam ab95502) (human) (UniProt Q16595); test: Simoa sandwich 2-step; capture Ab-1; 150 pM SβG; frataxin 0.686 pg/mL
[13] = target: Recombinant, his tagged full length human frataxin protein (Abcam ab95502) (human) (UniProt Q16595); test: Simoa sandwich 2-step (35 min-5 min); capture Ab-1; with helper beads; frataxin 55.6 pg/mL
[14] = target: Recombinant, his tagged full length human frataxin protein (Abcam ab95502) (human) (UniProt Q16595); test: Simoa sandwich 2-step (120 min-5 min); capture Ab-1; Diluent 1 + 10% NCS; frataxin 1000 pg/mL
[15] = target: Recombinant, his tagged full length human frataxin protein (Abcam ab95502) (human) (UniProt Q16595); test: Simoa sandwich 3-step; capture Ab-4; frataxin 1000 pg/mL
[16] = target: Recombinant, his tagged full length human frataxin protein (Abcam ab95502) (human) (UniProt Q16595); test: Simoa sandwich 3-step; capture Ab-2; frataxin 1000 pg/mL
[17] = target: Recombinant, his tagged full length human frataxin protein (Abcam ab95502) (human) (UniProt Q16595); test: Simoa sandwich 2-step (120 min-5 min); capture Ab-1; frataxin 222 pg/mL
[18] = target: Recombinant, his tagged full length human frataxin protein (Abcam ab95502) (human) (UniProt Q16595); test: Simoa sandwich 2-step (120 min-5 min); capture Ab-1; Diluent 1 + 10% NCS; frataxin 200 pg/mL
[19] = target: Recombinant, his tagged full length human frataxin protein (Abcam ab95502) (human) (UniProt Q16595); test: Simoa sandwich 3-step; capture Ab-2; frataxin 100 pg/mL
[20] = target: Recombinant, his tagged full length human frataxin protein (Abcam ab95502) (human) (UniProt Q16595); test: Simoa sandwich 2-step (120 min-5 min); capture Ab-1; frataxin 8.23 pg/mL
[21] = target: Recombinant, his tagged full length human frataxin protein (Abcam ab95502) (human) (UniProt Q16595); test: Simoa sandwich 2-step; capture Ab-1; 150 pM SβG; frataxin 55.6 pg/mL
[22] = target: Recombinant, his tagged full length human frataxin protein (Abcam ab95502) (human) (UniProt Q16595); test: Simoa sandwich 3-step; capture Ab-4; frataxin 1000 pg/mL; remark: listed apart in the source
[23] = target: Recombinant, his tagged full length human frataxin protein (Abcam ab95502) (human) (UniProt Q16595); test: Simoa sandwich 2-step; capture Ab-1; frataxin 2.06 pg/mL
[24] = target: Recombinant, his tagged full length human frataxin protein (Abcam ab95502) (human) (UniProt Q16595); test: Simoa sandwich 2-step (120 min-5 min); capture Ab-1; Diluent 1 + 10% NCS; frataxin 2.47 pg/mL
[25] = target: Recombinant, his tagged full length human frataxin protein (Abcam ab95502) (human) (UniProt Q16595); test: Simoa sandwich 3-step; capture Ab-3; frataxin 100 pg/mL

Chain of UniProt Q16595 (Q16595 42-210): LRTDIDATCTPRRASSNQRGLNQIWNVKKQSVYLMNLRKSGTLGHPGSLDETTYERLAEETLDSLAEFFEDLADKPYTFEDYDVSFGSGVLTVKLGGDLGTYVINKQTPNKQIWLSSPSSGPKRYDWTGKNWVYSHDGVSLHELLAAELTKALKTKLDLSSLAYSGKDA

Ab-3, mouse monoclonal [18A5DB1] to Frataxin (Abcam ab110328) (antibody)
AEB Rep1 [1]: 2.42 AEB
AEB Rep2 [1]: 2.1 AEB
Ave AEB [1]: 2.26 AEB
S/B [1]: 100
LOD [2]: 11.9 pg/mL
LOD [3]: 0.268 pg/mL
AEB Rep1 [4]: 0.387 AEB
AEB Rep2 [4]: 0.399 AEB
Ave AEB [4]: 0.393 AEB
S/B [4]: 16.1
LOD [5]: 1.3 pg/mL
LOD [6]: 0.34 pg/mL
AEB Rep1 [7]: 0.0586 AEB
AEB Rep2 [7]: 0.0638 AEB
Ave AEB [7]: 0.0612 AEB
S/B [7]: 2.51
Ave AEB [8]: 0.0153 AEB
S/B [8]: 1.42
Ave AEB [9]: 32.2 AEB
S/B [9]: 725
Ave AEB [10]: 1.98 AEB
S/B [10]: 19.1
Ave AEB [11]: 37.3 AEB
S/B [11]: 462
Ave AEB [12]: 0.0717 AEB
S/B [12]: 1.6
AEB Rep1 [13]: 3.47 AEB
AEB Rep2 [13]: 3.28 AEB
Ave AEB [13]: 3.38 AEB
S/B [13]: 139
Ave AEB [14]: 5.18 AEB
S/B [14]: 482
Ave AEB [15]: 17.2 AEB
S/B [15]: 359
Ave AEB [16]: 20.7 AEB
S/B [16]: 330
AEB rep1 [17]: 1.01 AEB
AEB rep2 [17]: 1.08 AEB
AEB rep3 [17]: 1.04 AEB
Ave AEB [17]: 1.04 AEB
S/B [17]: 127
Ave AEB [18]: 2.03 AEB
S/B [18]: 112
Ave AEB [19]: 2.44 AEB
S/B [19]: 38.9
AEB rep1 [20]: 0.0466 AEB
AEB rep2 [20]: 0.048 AEB
AEB rep3 [20]: 0.0517 AEB
Ave AEB [20]: 0.0487 AEB
S/B [20]: 5.91
Ave AEB [21]: 3.69 AEB
S/B [21]: 82.3
Ave AEB [22]: 25.2 AEB
S/B [22]: 215
Ave AEB [23]: 0.318 AEB
S/B [23]: 3.06
Ave AEB [24]: 0.0444 AEB
S/B [24]: 2.44
Ave AEB [25]: 0.0152 AEB
S/B [25]: 3.21
